# T1: cynomolgus monkey C16orf54 (cynomolgus monkey (Macaca fascicularis), UniProt Q6UWD8 1-224 (human entry))
# T1 construct: also called cyno C16orf54; cyno-C16orf54
# T1 chain: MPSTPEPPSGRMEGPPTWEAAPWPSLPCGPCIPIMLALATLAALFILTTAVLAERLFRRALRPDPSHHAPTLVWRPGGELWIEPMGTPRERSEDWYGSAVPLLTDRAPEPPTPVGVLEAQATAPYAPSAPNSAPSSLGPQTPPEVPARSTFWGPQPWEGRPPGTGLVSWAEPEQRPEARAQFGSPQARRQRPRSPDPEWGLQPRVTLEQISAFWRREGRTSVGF
# T2: Human C16-ECD peptide (aa1-31) (human)
# T2 construct: Coated on plates in the peptide ELISA; also called human extracellular domain peptide
# T2 peptide: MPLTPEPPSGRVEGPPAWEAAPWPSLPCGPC
# T3: human C16orf54 ECD fragment aa9-24 (human)
# T3 peptide: SGRVEGPPAWEAAPWP
# T4: human C16orf54 ECD fragment aa1-15 (human)
# T4 peptide: MPLTPEPPSGRVEGP
# T5: human C16orf54 (human, UniProt Q6UWD8 1-224)
# T5 construct: also called huC16orf54; hC16orf54
# T5 sequence: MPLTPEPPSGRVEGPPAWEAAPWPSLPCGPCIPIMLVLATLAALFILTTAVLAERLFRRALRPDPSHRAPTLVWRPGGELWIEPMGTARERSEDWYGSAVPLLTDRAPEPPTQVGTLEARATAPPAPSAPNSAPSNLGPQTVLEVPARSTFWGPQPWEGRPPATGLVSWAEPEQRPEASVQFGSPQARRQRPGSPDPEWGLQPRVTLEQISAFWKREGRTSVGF
# T6: human C16orf54 (Homo sapiens, UniProt Q6UWD8)
# T6 construct: expressed in transfected cells; host or cells: murine sarcoma cells (D42M1-huC16orf54)
# T6 sequence (Q6UWD8 1-224): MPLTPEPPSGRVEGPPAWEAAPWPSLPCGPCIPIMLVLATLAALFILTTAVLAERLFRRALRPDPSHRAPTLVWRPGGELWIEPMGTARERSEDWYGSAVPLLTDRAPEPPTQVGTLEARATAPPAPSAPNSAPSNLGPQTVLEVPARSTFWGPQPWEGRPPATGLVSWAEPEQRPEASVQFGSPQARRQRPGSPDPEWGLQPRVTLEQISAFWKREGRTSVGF
# T7: extracellular domain of c16orf54 (amino acids 1-31) fused to human IgG1 Fc (Homo sapiens, UniProt Q6UWD8)
# T7 construct: the extracellular domain of c16orf54 (amino acids 1-31) either N terminal or C-terminal to a human IgG1 Fc domain; made in house; host or cells: 293 T cells, transient; Protein A purification
# T7 sequence (Q6UWD8 1-31 limits assumed): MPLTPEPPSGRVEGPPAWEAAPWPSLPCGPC
# Key:
# [1] = target: T1, cynomolgus monkey C16orf54; assay: flow cytometry, 10 ug/ml antibody, F279-cyno-C16orf54 cells
# Description: (§1) Anti-C16orf54 antibodies which bound to human C16orf54 were tested for their reactivity with human C16orf54 and their crossreactivity with C16orf54 from cynomolgous monkeys (cyno C16orf54) using flow cytometry. Sarcoma cells transfected with and expressing human C16orf54 or cyno C16orf54 were washed with PBS with 0.1% BSA, incubated with FcX receptor blocking solution (BioLegend) for 15 minutes, incubated with 10 μg/ml of anti-C16orf54 antibody for 1 hour at 4° C., washed twice with PBS with 0.1% BSA, incubated with 20 μg/ml of R-Phycoerythrin-AffiniPure F(ab′)2 Fragment Goat Anti-Mouse IgG, Fcγ Fragment Specific (Jackson ImmunoResearch) for 30 minutes at 4° C., washed twice with PBS with 0.1% BSA, incubated with the viability dye TO-PRO-3 iodide (Life Technologies), and immediately analyzed on a MACSQuant Analyzer instrument (Miltenyi). For each cell line and anti-C16orf54 antibody, a fold change was derived by dividing the median fluorescence intensity for Phycoerythrin in the live cell population for the anti-C16orf54 antibody by the median fluorescence intensity for Phycoerythrin in the live cell population for the IgG isotype control antibody. A number of anti-C16orf54 antibodies (see, e.g., R29-8-57B, R29-8-136C, R29-7-1C, R29-67-7A, R29-67-4A, and R29-7-2A) bind human C16orf54 and also bind (e.g., are crossreactive with) cyno C16orf54.
# [2] = target: T2, Human C16-ECD peptide (aa1-31); assay: column head 'Full kinetics (nM)' in the table of the C16orf54 peptide binding assays; method and antigen not described; 3 runs
# [3] = target: T3, human C16orf54 ECD fragment aa9-24; assay: peptide ELISA, 2 ug/ml peptide coated, 10 ug/ml antibody
# Description: (§2) Anti-C16orf54 antibodies which bind to human C16orf54, including antibodies that are crossreactive with cyno C16orf54, were tested for their binding to various peptides derived from C16orf54 in a peptide ELISA. A 384-well high binding black microplate (Greiner) was incubated with 2 μg/ml of protein (human, cyno, or mouse extracellular domain peptides) for 16 hours, incubated for 1 hr with a blocking buffer (PBS with 5% Fetal Bovine Serum), washed four times with TBS with Tween, incubated for 1 hour with 10 μg/ml of anti-C16orf54 antibody, washed four times with TBS with Tween, incubated for 1 hour with 10 μg/ml of Peroxidase-AffiniPure Goat Anti-Mouse IgG, Fcγ Fragment Specific (Jackson ImmunoResearch), washed four times with TBS with Tween, and peroxidase was detected with a luminometer (Molecular Devices) upon addition of SuperSignal® ELISA Pico Chemiluminescent Substrate (Thermo Scientific). The luminescence signal was determined.
# [4] = target: T4, human C16orf54 ECD fragment aa1-15; assay: as above
# Description: as §2
# [5] = target: T1, cynomolgus monkey C16orf54; assay: flow cytometry titration, F279-cyno-C16orf54 cells
# Description: Anti-C16orf54 antibodies which bound to human C16orf54 were tested for their binding to cells expressing human C16orf54 and cells expressing cyno C16orf54. […] Median fluorescence intensities for each primary antibody concentration were used to derive a flow EC50/Kd using the one site-specific binding with Hill slope model in Prism (GraphPad Prism® Software). Results are shown as flow EC50 in Table 35.
# human C16orf54 [6] = target: T5, human C16orf54; assay: flow cytometry titration, KG1 cells (endogenous human C16orf54)
# human C16orf54 [7] = target: T5, human C16orf54; assay: flow cytometry, 10 ug/ml antibody, D42M1-huC16orf54 cells
# Description: as §1
# C16orf54 ECD peptides = assay: Peptide crossblocking (Table 36); format: binding
# human C16orf54 [8] = target: T6, human C16orf54; assay: Flow cytometry reactivity with sarcoma cells expressing human C16orf54 (fold change over isotype); format: binding; conditions: for binding to human C16orf54 (flow cytometry): sarcoma cells expressing human C16orf54, 10 μg/ml antibody
# Description: as §1, with “antibody.” for “antibody. A number of anti-C16orf54 antibodies (see, e.g., R29-8-57B, R29-8-136C, R29-7-1C, R29-67-7A, R29-67-4A, and R29-7-2A) bind human C16orf54 and also bind (e.g., are crossreactive with) cyno C16orf54.”
# [9] = target: T7, extracellular domain of c16orf54 (amino acids 1-31) fused to human IgG1 Fc; assay: C16orf54 peptide-Fc fusion protein ELISA; format: binding; conditions: serial dilution of antibody; HRP-conjugated anti mouse secondary
# Description: Anti-C16orf54 antibodies which bind to human C16orf54, including antibodies that are crossreactive with cyno C16orf54, were tested for their binding to various peptides derived from C16orf54 that were fused to human IgG (e.g., IgG1) constant regions to generate various peptide-Fc fusion proteins in an Fc-based ELISA. An exemplary Fc sequence comprises an IgG1 Hinge region sequence and IgG1 CH3 and […] domain sequences.
# The fusion proteins were transiently expressed in 293 T cells. Protein was purified from the 293 expression supernatants by Protein A-based affinity purification. Exemplary C16 peptide-Fc fusion constructs that were made and purified are shown with their protein yield in Table 38. ELISA assays were performed by coating 384 well plates with the fusion proteins overnight at 4C. Antibodies were analyzed by serial dilution with concentrations ranging from 40 ug/mL to […]. Binding was detected with an HRP-conjugated anti mouse secondary antibody.
# [10] = test system: human C16orf54 extracellular domain peptides; assay: C16orf54 peptide ELISA, human extracellular domain peptides; format: binding; conditions: human, cyno, or mouse extracellular domain peptides, not told apart; 10 μg/ml antibody
# Description: as §2
molecule,measurement,setting,value
"R29-8-57B (antibody, V domains shown, Murine monoclonal antibody from a hybridoma) VH: DVQLQESGPGLVKPSQSLSLTCTVTGYSITSDYAWNWIRQFPGNKLEWMGYINYSGSTRYNPSLKSRISITRDTSKNHFFLQLNSVTPEDTATYHCARERYDGVYYGMDYWGQGTSVTVSS VL: DIVMSQSPSSLAVSVGEKVTMSCKSSQSLLYSSNQKNYLAWYQQKPGQSPKLLIYWASTRESGVPDRFTGSGSGTDFTLTISSVKTEDLAVYYCQQYYSYRTFGGGTKLEIK",Median fold change relative to IgG control,[1],62 fold
same,Kd,[2],0.6 nM
same,binding result,[3],binds
same,binding result,[4],binds
same,EC50,[5],2.5 nM
same,EC50,human C16orf54 [6],0.1 nM
same,Median fold change relative to IgG control,human C16orf54 [7],204 fold
"R29-8-136C (antibody, V domains shown, Murine monoclonal antibody from a hybridoma) VH: DVQLQESGPGLVKPSQSLSLTCTVTGYSITSDYAWNWIRQFPGNKLEWMGYINYSGSSRYNPSLKSRISITRDTSKNHFFLQLNSVTPEDTATYHCARERYDGVYYGMDYWGQGTSVTVSS VL: DIVMSQSPSSLAVSVGEKVTMSCKSSQSLLYSSNQKNYLAWYQQKPGQSPKLLIYWASTRESGVPDRFTGSGSGTDFTLTISSVKTEDLAVYYCQQYYSYRTFGGGTKLEIK",Median fold change relative to IgG control,[1],61.6 fold
same,Kd,[2],0.64 nM
same,binding result,[3],binds
same,binding result,[4],binds
same,EC50,[5],2.5 nM
same,EC50,human C16orf54 [6],0.2 nM
same,Median fold change relative to IgG control,human C16orf54 [7],202 fold
"R29-8-57B: murine anti-C16orf54 monoclonal antibody; VH SEQ ID NO: 20, VL SEQ ID NO: 22 (antibody, V domains shown, R29-8-57B heavy chain variable region; R29-8-57B light chain variable region) VH: MRVLILLWLFTAFPGILSDVQLQESGPGLVKPSQSLSLTCTVTGYSITSDYAWNWIRQFPGNKLEWMGYINYSGSTRYNPSLKSRISITRDTSKNHFFLQLNSVTPEDTATYHCARERYDGVYYGMDYWGQGTSVTVSS VL: MDSQAQVLMSLLLWVSGTCGDIVMSQSPSSLAVSVGEKVTMSCKSSQSLLYSSNQKNYLAWYQQKPGQSPKLLIYWASTRESGVPDRFTGSGSGTDFTLTISSVKTEDLAVYYCQQYYSYRTFGGGTKLEIK",Peptide crossblocking,C16orf54 ECD peptides,"aa1-31, aa1-15"
same,binding to C16orf54-expressing cells (dual binders),human C16orf54 [8],bind to C16orf54-expressing cells
same,binding to human C16orf54 (flow cytometry),human C16orf54 [8],bind human C16orf54
same,binding to peptide-Fc fusion proteins (Fc-based ELISA),[9],able to bind to the peptide-Fc fusion proteins
same,binding to peptides derived from the extracellular domain of C16orf54 (peptide ELISA),[10],bind to the various peptides derived from the extracellular domain (ECD) of C16orf54
"R29-8-136C: murine anti-C16orf54 monoclonal antibody; VH SEQ ID NO: 16, VL SEQ ID NO: 18 (antibody, V domains shown, R29-8-136C heavy chain variable region; R29-8-136C light chain variable region) VH: MRVLILLWLFTAFPGILSDVQLQESGPGLVKPSQSLSLTCTVTGYSITSDYAWNWIRQFPGNKLEWMGYINYSGSSRYNPSLKSRISITRDTSKNHFFLQLNSVTPEDTATYHCARERYDGVYYGMDYWGQGTSVTVSS VL: MDSQAQVLMSLLLWVSGTCGDIVMSQSPSSLAVSVGEKVTMSCKSSQSLLYSSNQKNYLAWYQQKPGQSPKLLIYWASTRESGVPDRFTGSGSGTDFTLTISSVKTEDLAVYYCQQYYSYRTFGGGTKLEIK",Peptide crossblocking,C16orf54 ECD peptides,"aa1-31, aa1-15"
same,binding to C16orf54-expressing cells (dual binders),human C16orf54 [8],bind to C16orf54-expressing cells
same,binding to human C16orf54 (flow cytometry),human C16orf54 [8],bind human C16orf54
same,binding to peptides derived from the extracellular domain of C16orf54 (peptide ELISA),[10],bind to the various peptides derived from the extracellular domain (ECD) of C16orf54

# From patent US20150231240A1, “ANTI-C16ORF54 ANTIBODIES AND METHODS OF USE THEREOF” (priority 2012, published 2015)
